Test results published in PMC5620376.

Tests used:
Experiment in all cases: pull-down
GST-Bet1 (yeast) = target: T1, GST-Bet1 (yeast)
T1 sequence (P22804 whole entry, looked up): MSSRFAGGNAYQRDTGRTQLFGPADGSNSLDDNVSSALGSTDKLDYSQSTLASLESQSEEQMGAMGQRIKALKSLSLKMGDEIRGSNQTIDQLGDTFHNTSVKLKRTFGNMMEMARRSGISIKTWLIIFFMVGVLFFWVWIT

GST-Gos1 (yeast) = target: T2, GST-Gos1 (yeast)
T2 sequence (P38736 whole entry, looked up): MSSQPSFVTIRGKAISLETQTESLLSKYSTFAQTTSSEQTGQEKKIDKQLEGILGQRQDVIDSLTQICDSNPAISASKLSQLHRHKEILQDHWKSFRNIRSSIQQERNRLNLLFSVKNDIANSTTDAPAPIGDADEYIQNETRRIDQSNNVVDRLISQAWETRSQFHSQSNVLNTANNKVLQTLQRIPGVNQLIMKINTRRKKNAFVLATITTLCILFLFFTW

GST-Sed5 (yeast) = target: GST-Sed5 (yeast)
Chain of GST-Sed5 (yeast) (Q01590 whole entry): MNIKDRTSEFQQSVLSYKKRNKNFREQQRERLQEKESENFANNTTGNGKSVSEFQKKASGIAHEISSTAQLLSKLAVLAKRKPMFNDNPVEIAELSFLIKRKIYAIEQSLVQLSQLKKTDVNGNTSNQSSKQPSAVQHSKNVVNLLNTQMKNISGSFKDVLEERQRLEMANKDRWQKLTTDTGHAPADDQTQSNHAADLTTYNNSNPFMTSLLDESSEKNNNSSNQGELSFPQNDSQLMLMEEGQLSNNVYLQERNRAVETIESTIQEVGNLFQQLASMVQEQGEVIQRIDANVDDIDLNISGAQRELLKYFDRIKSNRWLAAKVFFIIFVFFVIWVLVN

GST-Sft1 (yeast) = target: T3, GST-Sft1 (yeast)
T3 sequence (P43682 whole entry, looked up): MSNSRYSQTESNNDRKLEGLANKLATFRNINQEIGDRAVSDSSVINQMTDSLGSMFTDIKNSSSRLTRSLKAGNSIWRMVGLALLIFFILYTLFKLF

GST-Ykt6 (yeast) = target: T4, GST-Ykt6 (yeast)
T4 sequence (P36015 whole entry, looked up): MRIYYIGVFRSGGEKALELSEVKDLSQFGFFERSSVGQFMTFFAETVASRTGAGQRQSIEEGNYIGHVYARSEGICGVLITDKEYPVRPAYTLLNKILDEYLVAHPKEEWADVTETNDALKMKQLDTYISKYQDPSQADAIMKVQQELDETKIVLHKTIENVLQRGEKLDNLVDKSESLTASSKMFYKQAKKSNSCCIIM

GST = target: GST

B1: Coy1ΔTM-HA (domain or fragment)
chain: MDTSVYSHALDIWAKADLTNLQRELDADVIEIKDKETLSLNSRKSLATETKKFKKLEPEEKLNNVNKIIKQYQREIDNLTQRSKFSEKVLFDVYEKLSEAPDPQPLLQSSLEKLGKIDDSKELKEKISYLEDKLAKYADYETLKSRLLDLEQSSAKTLAKRLTAKTQEINSTWEEKGRNWKEREADLLKQLTNVQEQNKALEAKISKNIDIEGNGNEDGDQENNQKEVSTRIAEYNLVTQELETTQARIYQLEKRNEELSGALAKATSEAEKETELHAKELKLNQLESENALLSASYEQERKSTSHAINELKEQLNSVVAESESYKSELETVRRKLNNYSDYNKIKEELSALKKIEFGVNEDDSDNDIRSEDKNDNTFESSLLSANKKLQATLAEYRSKSTAQEEERNELKKSVDQLKQQIATLKEANEKLETDLEKVENVSPHFNETASMMSGVTRQMNNRTSHKMSPTSSIIGIPEDGELSGNQSTILPIVTKQRDRFRSRNMDLEKQLRQGNSEKGKLKLEISKLKGDNTKLYERIRYLQSYNNNNAPVNQSTERIDVESQYSRVYDESLHPMANFRQNELNHYKNKKLSALEKLFSSFAKVILQNKMTR
- percent of input recovered (GST-Bet1 (yeast)): < 1%
- percent of input recovered (GST-Gos1 (yeast)): 15%
- percent of input recovered (GST-Sed5 (yeast)): 15%
- percent of input recovered (GST-Sft1 (yeast)): 15%
- percent of input recovered (GST-Ykt6 (yeast)): < 1%
- percent of input recovered (GST): < 1%
